Data on 2 substances can be found in article PMC12426278.

Assay [1] has as its target huCD147mt-Strep (glycosylation-deficient soluble extracellular domain of human CD147, Strep-tag II) (human). As to the kind of experiment: BLI; Octet Red96e; […] (20 μg/mL) […]; 25 mM HEPES, 150 mM NaCl pH 7.5, 0.04% Tween-20; global 1:1 model. Background: Biolayer interferometry detects binding as a change in optical thickness at a sensor tip.
The target of assay [2] is huCD147-Strep (soluble extracellular domain of human CD147, Strep-tag II) (human). The assay is described as above.

Turning to “[change] (soluble extracellular domain of H1N1 HA) (from UniProt P03452 18-528) (domain or fragment)”, the dissociation constant Kd (commonly the free concentration of one partner at which half of the binding sites on the other are occupied at equilibrium, for simple one-to-one binding) worked out at 0.5 µM in assay [1] and 0.7 µM in assay [2].
For “[change] (soluble extracellular domain of H9N2 HA) (domain or fragment)”, in that order: 0.2 µM and 0.31 µM.
